# Laboratory results taken from patent US20240200091A1, “USE OF PROTOPORPHYRINOGEN OXIDASE” (BEIJING DABEINONG BIOTECHNOLOGY CO., LTD., priority 2021, published 2024).
# B1: PPO4A: nucleotide sequence encoding microbial protoporphyrinogen oxidase PPO4 (SEQ ID NO:4), Arabidopsis thaliana/soybean common codon usage bias (nucleic acid)
# DNA: ATGAAAACCCTGATTCTTTACAGCAGTCATGATGGACAGACCAAGAAAATCTCAGAGTTCCTTACGGCGTTGTTGAATGGCGAAGTTCTAGTTGATGCTCTACGTGAAGATTATGATATTGAAACATTTGACCAAGTTATAATCGGAGCTTCCATAAGGTATGGTCACTTTTCTAAGACTTTAGACAGATTTGTGGTGAGAAACAGGGTACATCTGGAACAAAAACGAGCAGTATTCTTCTCTGTTAACTTAACTGCCCGAAAAGAAGGTAAAGACAATCCTGAAACTAATGTCTATGTCAGAAAGTTTCTCCAGAGAACAAAATGGCAACCAAAACTTGCTGCCGTCTTCGCAGGTGCACTCTTGTACCCGAGATATAAGTGGTTTGATCGTGTGATGATTCGGTTTATCATGAAGATTACTGGGGGAGAGACGGATATAACAAAGGAGATTGAGTACACAGATTGGGAAAAGGTTAGGGAGTTCGCTCAGAGAATCAACCGCCTTGAGAAATGA
# modifications: PPO4A Nucleotide Sequence
# B2: PPO5A: nucleotide sequence encoding microbial protoporphyrinogen oxidase PPO5 (SEQ ID NO:5), Arabidopsis thaliana/soybean common codon usage bias (nucleic acid)
# DNA: ATGAAGACTCTTATCCTCTACTTCACAACAGACGGCCAAACGAAAAAGATTGCCGAGAGACTGGCTGATGTGATTACTCATGAAGTGGAGCTAATCTCCTTGAAAGATCAAGCTGTTGATTTTGCTCAGAAGATGGCTAATGTTGACCAAGTAGTCATTGGAGCGAGTATAAGGTATGGTCACTTCAGCCCTCTTGTTTATCAGTTTATTGAACAACATTATGCAATGTTGAATGAGAAGAAAACCGCTTTTTATGGAGTGAATCTCACAGCAAGGAAAGCAAATCGAAACACCCCAACCACAAATACTTACATCCGGAACTTCTTAGCAAAGGTGAAATGGCAACCTAACTATGTTGAGGTCATAGCTGGTGCCTTGTTTTACCCGCGTTACAGATTCATTGATAGAATGATGATTCGCTTCATCATGAAAGTAACGAAAGGAGAAACTGATGTTTCAAAAGAATATGAATACACAAACTGGCAGCAAGTTGAAGAGTTTGGGAAGAAGCTTTCTGATCAGTTAATATGA
# modifications: PPO5A Nucleotide Sequence
# Assays:
# Type in all cases: in vivo
# Details in all cases: 7 DAT, number of plants of 24 per genotype, grades
# [1] = test system: Arabidopsis thaliana T1 plants; experiment: sulfentrazone tolerance of transgenic Arabidopsis thaliana T1 plants (spray, grade of pesticide damage)
# Source text: (§1) The transformed Arabidopsis thaliana T1 plants were initially selected using glufosinate herbicide. The Arabidopsis thaliana T1 plants (PPO1A) into which the PPO1A nucleotide sequence was introduced, the Arabidopsis thaliana T1 plants (PPO2A) into which the PPO2A nucleotide sequence was introduced, the Arabidopsis thaliana T1 plants (PPO3A) into which the PPO3A nucleotide sequence was introduced, the Arabidopsis thaliana T1 plants (PPO4A) into which the PPO4A nucleotide sequence was introduced, the Arabidopsis thaliana T1 plants (PPO5A) into which the PPO5A nucleotide sequence was introduced, the Arabidopsis thaliana T1 plants (PPO6A) into which the PPO6A nucleotide sequence was introduced, the Arabidopsis thaliana T1 plants (PPO7A) into which the PPO7A nucleotide sequence was introduced, the Arabidopsis thaliana T1 plants (PPO8A) into which the PPO8A nucleotide sequence was introduced, the Arabidopsis thaliana T1 plants (PPO9A) into which the PPO9A nucleotide sequence was introduced, the Arabidopsis thaliana T1 plants (PPO10A) into which the […] nucleotide sequence was introduced, the Arabidopsis thaliana T1 plants (PPO11A) into which the PPO11A nucleotide sequence was introduced, the Arabidopsis thaliana T1 plants (PPO12A) into which the PPO12A nucleotide sequence was introduced, the Arabidopsis thaliana T1 plants (PPO13A) into which the PPO13A nucleotide sequence was introduced, the Arabidopsis thaliana T1 plants (PPO14A) into which the PPO14A nucleotide sequence was introduced, the Arabidopsis thaliana T1 plants (PPO-ATA) into which the PPO-ATA nucleotide sequence was introduced, the Arabidopsis thaliana T1 plants (PPO-APA) into which the PPO-APA nucleotide sequence was introduced, the Arabidopsis thaliana T1 plants (control vector) into which the control vector was introduced, and the wild-type Arabidopsis thaliana plants (CK) (with 24 plants being included in each genotype) (18 days after sowing) were sprayed with oxyfluorfen at three concentrations (180 g ai/ha (one-fold field concentration, 1×), 720 g ai/ha (four-fold field concentration, 4×), and 0 g ai/ha (water, 0×)), saflufenacil at three concentrations (25 g ai/ha (one-fold field concentration, 1×), 100 g ai/ha (four-fold field concentration, 4×), and 0 g ai/ha (water, 0×)), flumioxazin at three concentrations (60 g ai/ha (one-fold field concentration, 1×), 240 g ai/ha (four-fold field concentration, 4×), and 0 g ai/ha (water, 0×), and sulfentrazone at three concentrations (450 g ai/ha (one-fold field concentration, 1×), 900 g ai/ha (two-fold field concentration, 2×), and 0 g ai/ha (water, 0×) to determine the tolerance of Arabidopsis thaliana to the herbicides. After 7 days of spraying (7 DAT), the damage level of each plant caused by the herbicide was evaluated according to the average of the damage levels (%) of plants (the average of the damage levels (%) of plants=the injured leaf area/the total leaf area×[…]), i.e., the grade of pesticide damage: grade 0 means that the growth status of plants is essentially consistent with those sprayed with the blank solvent (water); grade 1 means that the average of the damage levels of plants is less than 10%; grade 2 means that the average of the damage levels of plants is greater than […]; and grade 3 means that the average of the damage levels of plants is 100%. The plants having a growth status falling within grades 0 and 1 are classified as highly resistant plants; those having a growth status falling within grade 2 are classified as poorly resistant plants; and those having a growth status falling within grade 3 are classified as non-resistant plants.
# [2] = test system: Arabidopsis thaliana T1 plants; experiment: oxyfluorfen tolerance of transgenic Arabidopsis thaliana T1 plants (spray, grade of pesticide damage)
# Source text: as §1
# [3] = test system: Arabidopsis thaliana T1 plants; experiment: flumioxazin tolerance of transgenic Arabidopsis thaliana T1 plants (spray, grade of pesticide damage)
# Source text: as §1
# [4] = test system: Arabidopsis thaliana T1 plants; experiment: saflufenacil tolerance of transgenic Arabidopsis thaliana T1 plants (spray, grade of pesticide damage)
# Source text: as §1
Molecule,The grade of pesticide: grade 0 ([1]; sulfentrazone 450 g ai/ha (1×)),The grade of pesticide: grade 1 ([1]; sulfentrazone 450 g ai/ha (1×)),The grade of pesticide: grade 2 ([1]; sulfentrazone 450 g ai/ha (1×)),The grade of pesticide: grade 3 ([1]; sulfentrazone 450 g ai/ha (1×)),The grade of pesticide: grade 0 ([1]; sulfentrazone 900 g ai/ha (2×)),The grade of pesticide: grade 1 ([1]; sulfentrazone 900 g ai/ha (2×)),The grade of pesticide: grade 2 ([1]; sulfentrazone 900 g ai/ha (2×)),The grade of pesticide: grade 3 ([1]; sulfentrazone 900 g ai/ha (2×)),The grade of pesticide damage/plant: grade 0 ([2]; oxyfluorfen 180 g ai/ha (1×)),The grade of pesticide damage/plant: grade 1 ([2]; oxyfluorfen 180 g ai/ha (1×)),The grade of pesticide damage/plant: grade 2 ([2]; oxyfluorfen 180 g ai/ha (1×)),The grade of pesticide damage/plant: grade 3 ([2]; oxyfluorfen 180 g ai/ha (1×)),The grade of pesticide damage/plant: grade 0 ([2]; oxyfluorfen 720 g ai/ha (4×)),The grade of pesticide damage/plant: grade 1 ([2]; oxyfluorfen 720 g ai/ha (4×)),The grade of pesticide damage/plant: grade 2 ([2]; oxyfluorfen 720 g ai/ha (4×)),The grade of pesticide damage/plant: grade 3 ([2]; oxyfluorfen 720 g ai/ha (4×)),The grade of pesticide damage/plant: grade 0 ([3]; flumioxazin 60 g ai/ha (1×)),The grade of pesticide damage/plant: grade 1 ([3]; flumioxazin 60 g ai/ha (1×)),The grade of pesticide damage/plant: grade 2 ([3]; flumioxazin 60 g ai/ha (1×)),The grade of pesticide damage/plant: grade 3 ([3]; flumioxazin 60 g ai/ha (1×)),other results
B1,24,0,0,0,18,6,0,0,24 plant,0 plant,0 plant,0 plant,22 plant,2 plant,0 plant,0 plant,24 plant,0 plant,0 plant,0 plant,The grade of pesticide damage/plant: grade 0 ([3]; flumioxazin 240 g ai/ha (4×)): 22 plant; The grade of pesticide damage/plant: grade 1 ([3]; flumioxazin 240 g ai/ha (4×)): 2 plant; The grade of pesticide damage/plant: grade 2 ([3]; flumioxazin 240 g ai/ha (4×)): 0 plant; The grade of pesticide damage/plant: grade 3 ([3]; flumioxazin 240 g ai/ha (4×)): 0 plant; The grade of pesticide damage/plant: grade 0 ([4]; saflufenacil 25 g ai/ha (1×)): 24 plant; The grade of pesticide damage/plant: grade 1 ([4]; saflufenacil 25 g ai/ha (1×)): 0 plant; The grade of pesticide damage/plant: grade 2 ([4]; saflufenacil 25 g ai/ha (1×)): 0 plant; The grade of pesticide damage/plant: grade 3 ([4]; saflufenacil 25 g ai/ha (1×)): 0 plant; The grade of pesticide damage/plant: grade 0 ([4]; saflufenacil 100 g ai/ha (4×)): 4 plant; The grade of pesticide damage/plant: grade 1 ([4]; saflufenacil 100 g ai/ha (4×)): 20 plant; The grade of pesticide damage/plant: grade 2 ([4]; saflufenacil 100 g ai/ha (4×)): 0 plant; The grade of pesticide damage/plant: grade 3 ([4]; saflufenacil 100 g ai/ha (4×)): 0 plant
B2,24,0,0,0,20,4,0,0,24 plant,0 plant,0 plant,0 plant,22 plant,2 plant,0 plant,0 plant,24 plant,0 plant,0 plant,0 plant,The grade of pesticide damage/plant: grade 0 ([3]; flumioxazin 240 g ai/ha (4×)): 21 plant; The grade of pesticide damage/plant: grade 1 ([3]; flumioxazin 240 g ai/ha (4×)): 3 plant; The grade of pesticide damage/plant: grade 2 ([3]; flumioxazin 240 g ai/ha (4×)): 0 plant; The grade of pesticide damage/plant: grade 3 ([3]; flumioxazin 240 g ai/ha (4×)): 0 plant; The grade of pesticide damage/plant: grade 0 ([4]; saflufenacil 25 g ai/ha (1×)): 24 plant; The grade of pesticide damage/plant: grade 1 ([4]; saflufenacil 25 g ai/ha (1×)): 0 plant; The grade of pesticide damage/plant: grade 2 ([4]; saflufenacil 25 g ai/ha (1×)): 0 plant; The grade of pesticide damage/plant: grade 3 ([4]; saflufenacil 25 g ai/ha (1×)): 0 plant; The grade of pesticide damage/plant: grade 0 ([4]; saflufenacil 100 g ai/ha (4×)): 0 plant; The grade of pesticide damage/plant: grade 1 ([4]; saflufenacil 100 g ai/ha (4×)): 24 plant; The grade of pesticide damage/plant: grade 2 ([4]; saflufenacil 100 g ai/ha (4×)): 0 plant; The grade of pesticide damage/plant: grade 3 ([4]; saflufenacil 100 g ai/ha (4×)): 0 plant
